Laboratory results reported in patent publication US20120219503A1 (GENE TECHNO SCIENCE, published 2012).
Blank lines part the entries; values can stand above or below the binder they belong to. No end group written: not given here.

Columns and labels:
hOPN5-BSA [1] = biological target: T1, hOPN5-BSA (also: conjugated to BSA, coupling site not given here); assay: ELISA, hOPN5-BSA coated on the plate
T1 construct: RGD-containing synthetic peptide coupled to the carrier BSA and coated on ELISA or adhesion plates
T1 peptide: CVDTYDGRGDSVVYGLRS
Description: (§1) Binding of Ch33E10 and Hu33E10-VH1/VL6 IgG1/κ antibodies to hOPN5-BSA was examined by ELISA. As an antigen, synthetic oligopeptide ([…] provided by Gene Techno Science) conjugated to bovine serum albumin (hOPN5-BSA) was used. In a typical experiment, an ELISA plate was coated with 100 μl/well of 1 μg/ml hOPN5-BSA in 0.2 M Na₂CO₃ buffer (pH 9.4) overnight at 4° C., washed with Wash Buffer, and blocked with 300 μl/well of Blocking Buffer for 1 hr at room temperature. After washing with Wash Buffer, samples appropriately diluted in ELISA Buffer were applied at 100 μl/well in the ELISA plate. After incubating the ELISA plate overnight at 4° C. and washing with Wash Buffer, bound antibodies were detected using 100 μl/well of 1/2,000-diluted HRP-conjugated goat anti-human γ chain polyclonal antibody (SouthernBiotech). After incubating for 1 hr at room temperature and washing with Wash Buffer, color development was performed by adding 100 μl/well of ABTS substrate and stopped with 100 μl/well of 2% oxalic acid. Absorbance was read at 405 nm.
Binding of Hu33E10-VH5/VL6, Hu33E10-VH7/VL6 and Hu33E10-VH7.8/VL6 antibodies to hOPN5-BSA was compared to that of Ch33E10 by ELISA as described in Section 5. […] In repeated experiments, Hu33E10-VH7/VL6 and Hu33E10-VH7.8/VL6 behaved similarly to each other for binding to hOPN5-BSA.

hOPN5-BSA [2] = biological target: T1, hOPN5-BSA; assay: ELISA, hOPN5-BSA coated on the plate (conclusion)
hOPN5-BSA [3] = biological target: T1, hOPN5-BSA; assay: ELISA, hOPN5-BSA coated on the plate, two independent experiments
Description: FIGS. 21A & 21B show ELISA analysis of the binding of Ch33E10 and Hu33E10-VH7/VLv2 IgG1/κ antibodies to hOPN5-BSA. Purified Ch33E10 and Hu33E10-VH7/VLv2 antibodies were tested at various concentrations, starting at 200 μg/ml (FIG. 21A) or 100 μg/ml (FIG. 21B) and serial 2-fold dilutions, for binding to hOPN5-BSA. The results of two independent experiments in duplicate (FIGS. 21A & 21B) are shown.
as §1, with “After incubating for 1 hr at room temperature and washing with Wash Buffer, color development was performed by adding 100 μl/well of ABTS substrate and stopped with 100 μl/well of 2% oxalic acid.” left out, “nm. […]” for “nm.”

- binding result (hOPN5-BSA [1]): binds
B1: Ch33E10 (chimeric 33E10 IgG1/κ antibody) (antibody, V domains shown)
VH: EVKLVESGGGLVQPGGSLSLSCAASGFTFTDYYMIWVRQPPGKALEWLGFIRNKANGYTTEYSASVKGRFTISRDNSQSILYLQMNALRAEDSATYYCARGAYWGQGTLVTVSA
VL: DVLMTQTPLSLPVSLGDQASISCRSSQSIVHSNGNTYLEWYLQKPGQSPKLLIYRVSNRFSGVPDRFSGSGSGTDFTLKISRVEAEDLGVYYCFQGSFVPWTFGGGTKLEIK
notes: also called product of NS0-Ch33E10 2C11 (L4-2C11)

- fold weaker binding than Ch33E10 (hOPN5-BSA [1]): ~100 fold
B2: Hu33E10-VH1/VL6 IgG1/κ antibody (antibody, V domains shown)
VH: EVQLVESGGGLVQPGGSLRLSCAASGFTFTDYYMIWVRQAPGKGLEWLGFIRNKANGYTTEYSASVKGRFTISRDNAKNSLYLQMNSLRAEDTAVYYCARGAYWGQGTMVTVSS
VL: DIVMTQSPLSLPVTPGEPASISCRSSQSIVHSNGNTYLEWYLQKPGQSPQLLIYRVSNRFSGVPDRFSGSGSGTDFTLKISRVEAEDVGVYYCFQGSFVPWTFGQGTKVEIK
notes: Human IgG1/κ form; also called product of NS0-Hu33E10-2 #22

- fold difference of affinity from Ch33E10 (hOPN5-BSA [2]): ≤ 3 fold
- fold difference of binding affinity from Ch33E10 (hOPN5-BSA [3]): ≤ 2 fold
B3: Hu33E10-VH7/VLv2 IgG1/κ antibody (antibody, V domains shown)
VH: EVQLVESGGGLVQPGGSLRLSCAASGFTFTDYYMIWVRQAPGKGLEWLGFIRNKANGYTTEYSASVKGRFTISRDNAKSILYLQMNSLRAEDTAVYYCARGAYWGQGTMVTVSS
VL: DIVMTQSPDSLAVSLGERATISCRSSQSIVHSNGNTYLEWYLQKPGQPPKLLIYRVSNRFSGVPDRFSGSGSGTDFTLTISSLQAEDVAVYYCFQGSFVPWTFGQGTKVEIKR
notes: also called SP2-1; SP-2

- fold lower affinity than Ch33E10 (hOPN5-BSA [1]): ~3 fold
B4: Hu33E10-VH7.8/VL6 IgG1/κ antibody (antibody, V domains shown)
VH: EVQLVESGGGLVQPGGSLRLSCAASGFTFTDYYMIWVRQAPGKGLEWLGFIRNKANGYTTEYSASVKGRFTISRDNSKSILYLQMNSLRAEDTAVYYCARGAYWGQGTMVTVSS
VL: DIVMTQSPLSLPVTPGEPASISCRSSQSIVHSNGNTYLEWYLQKPGQSPQLLIYRVSNRFSGVPDRFSGSGSGTDFTLKISRVEAEDVGVYYCFQGSFVPWTFGQGTKVEIKR
notes: also called EJ3-1-1; product of NS0-Hu33E10-5 1E5 (EJ3-3 1E5)
